Test results published in patent US20180298051A1 (Scripps Research, published 2018).
Ends that are not written are not given here.

Biological target: T1, RXFP1 on RXFP1 CRE-Bla cells (human, UniProt Q9HBX9 1-757)
T1 sequence (looked up): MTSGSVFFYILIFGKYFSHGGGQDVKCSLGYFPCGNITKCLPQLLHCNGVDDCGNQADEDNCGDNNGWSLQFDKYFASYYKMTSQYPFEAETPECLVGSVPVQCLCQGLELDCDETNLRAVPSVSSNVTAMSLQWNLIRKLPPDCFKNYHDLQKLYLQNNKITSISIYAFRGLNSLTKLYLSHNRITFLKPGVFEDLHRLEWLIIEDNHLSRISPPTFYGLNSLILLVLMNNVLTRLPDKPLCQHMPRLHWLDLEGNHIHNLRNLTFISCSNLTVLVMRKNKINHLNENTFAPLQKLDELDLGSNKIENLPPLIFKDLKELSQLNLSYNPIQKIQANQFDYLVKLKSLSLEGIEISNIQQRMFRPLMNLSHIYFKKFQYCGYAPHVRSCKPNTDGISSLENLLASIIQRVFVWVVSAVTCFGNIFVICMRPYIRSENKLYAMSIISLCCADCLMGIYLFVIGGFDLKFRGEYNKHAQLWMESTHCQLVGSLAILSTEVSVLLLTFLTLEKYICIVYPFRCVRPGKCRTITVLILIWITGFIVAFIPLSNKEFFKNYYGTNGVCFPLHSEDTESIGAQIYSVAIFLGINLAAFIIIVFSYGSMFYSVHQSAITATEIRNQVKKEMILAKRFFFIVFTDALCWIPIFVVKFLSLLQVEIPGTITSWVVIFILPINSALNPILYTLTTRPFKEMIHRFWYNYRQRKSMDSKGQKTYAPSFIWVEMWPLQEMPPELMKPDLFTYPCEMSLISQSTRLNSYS
Assay: cell-based or functional assay

B1: relaxin-H2 protein (R&D Systems) (ligand)
chain 1: QLYSALANKCCHVGCTKRSLARFC
chain 2: DSWMEEVIKLCGRELVRAQIAICGMSTWS
modifications: disulfide (positions not given here); ends not checked; also: three disulfides: two between A and B chains, one within A chain, pairings not given here
EC50, in vitro FRET assay, RXFP1 CRE-Bla cells: 4.9 nM
